Experimental data reported in patent US20210032365A1 (Chugai, published 2021).

T1: human C1s (human, UniProt P09871 16-688)
T1 construct: also called hC1s; serum-derived human C1s (CompTech)
T1 sequence: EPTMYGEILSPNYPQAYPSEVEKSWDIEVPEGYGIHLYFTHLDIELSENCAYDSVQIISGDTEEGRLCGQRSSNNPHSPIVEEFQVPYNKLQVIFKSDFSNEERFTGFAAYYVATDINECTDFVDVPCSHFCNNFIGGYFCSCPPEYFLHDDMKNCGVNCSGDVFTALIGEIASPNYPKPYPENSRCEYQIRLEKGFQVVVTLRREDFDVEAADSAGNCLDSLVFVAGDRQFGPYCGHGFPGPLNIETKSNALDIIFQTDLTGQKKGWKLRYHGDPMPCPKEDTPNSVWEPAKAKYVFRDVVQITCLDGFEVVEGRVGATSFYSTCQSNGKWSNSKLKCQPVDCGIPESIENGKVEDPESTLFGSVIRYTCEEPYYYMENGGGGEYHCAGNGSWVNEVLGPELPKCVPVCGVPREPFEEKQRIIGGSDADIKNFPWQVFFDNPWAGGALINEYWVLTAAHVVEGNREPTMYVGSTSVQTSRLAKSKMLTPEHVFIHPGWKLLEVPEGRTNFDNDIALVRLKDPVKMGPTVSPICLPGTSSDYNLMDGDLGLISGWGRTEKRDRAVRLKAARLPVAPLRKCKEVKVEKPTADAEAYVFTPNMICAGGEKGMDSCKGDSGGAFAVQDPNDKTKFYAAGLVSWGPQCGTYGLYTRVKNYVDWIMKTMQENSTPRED


Experiments:
human C1s [1] = target: T1, human C1s; assay: SPR, Ab captured; pH 5.8, 1.2 mM Ca
Protocol: (§1) All variants were transiently expressed and purified by the method described above. The binding affinity of each histidine-substituted variant at pH 7.4 and pH 5.8 was determined at 37 degrees C. using Biacore T200 instrument (GE Healthcare). Recombinant Protein A/G (Pierce) was immobilized onto all flow cells of a CM4 sensor chip using an amine coupling kit (GE Healthcare). Antibodies and analytes were prepared in 7(+) buffer (20 mM ACES, 150 mM NaCl, 1.2 mM CaCl2, 0.05% Tween 20, 0.005% NaN3, pH 7.4), 5(+) buffer (20 mM ACES, 150 mM NaCl, 1.2 mM CaCl2, 0.05% Tween 20, 0.005% NaN3, pH 5.8), or 5(−) buffer (20 mM ACES, 150 mM NaCl, 3 micro M CaCl2, 0.05% Tween 20, 0.005% NaN3, pH 5.8). Each antibody was captured onto the sensor surface by protein A/G. Antibody capture levels were aimed at 200 resonance unit (RU). Serum-derived human C1s (CompTech) or recombinant C1s prepared in EXAMPLE 1 was injected at 50 nM, followed by dissociation. The sensor surface was regenerated in each cycle with 10 mM Glycine-HCl, pH 1.5. […] The ratio of KD 5.8+ to KD 7.4+(“KD 5+/7+”) and that of KD 5.8− to KD 7.4+(“KD 5−/7+”) were calculated. When the KD 5+/7+ or KD 5−/7+ of a variant is larger than that of the parent antibody IPN009VH2-SG4GK/IPN009VK3-SK1, that variant is considered to be “pH”- or “pH and Ca”-dependent, respectively. When binding response in 5(+) buffer and/or in 5(−) buffer of a variant is much lower than that of IPN09VH2/IPN009VK3, that variant is also considered as “pH”- and/or “pH and Ca”-dependent. Therefore, such mutations are effective to generate “pH”- and/or “pH and Ca”-dependent antibody. To further enhance “pH” and/or “pH and Ca” dependency, a combination of histidine mutations was conducted. Antibodies with combinations of histidine mutations were evaluated using Biacore by the method described above.

human C1s [2] = target: T1, human C1s; assay: SPR; KD pH 5.8 1.2 mM Ca / KD pH 7.4 1.2 mM Ca
Protocol: as §1

human C1s [3] = target: T1, human C1s; assay: SPR; KD pH 5.8 3 uM Ca / KD pH 7.4 1.2 mM Ca
Protocol: as §1

human C1s [4] = target: T1, human C1s; assay: SPR, Ab captured; pH 5.8, 3 uM Ca
Protocol: as §1

human C1s [5] = target: T1, human C1s; assay: SPR, Ab captured; pH 7.4, 1.2 mM Ca
Protocol: as §1

| Kd (human C1s [1]) [nM] | koff (human C1s [1]) [s⁻¹] | kon (human C1s [1]) [M⁻¹ s⁻¹] | KD 5(+)/7(+) (human C1s [2]) | KD 5(-)/7(+) (human C1s [3]) | Kd (human C1s [4]) [nM] | koff (human C1s [4]) [s⁻¹] | kon (human C1s [4]) [M⁻¹ s⁻¹] | Kd (human C1s [5]) [nM] | koff (human C1s [5]) [s⁻¹] | kon (human C1s [5]) [M⁻¹ s⁻¹] | Binder |
| --- | --- | --- | --- | --- | --- | --- | --- | --- | --- | --- | --- |
| 5.05 | 0.00282 | 559000 | 1.6 | 3.5 | 11.3 | – | – | 3.25 | 0.000978 | 301000 | C1_IPN92H0033-SG4GK/IPN93L0023-SK1 (antibody, human IgG4 S228P, kappa, name in Kabat numbering, V domains shown, also called IPN92H0033/IPN93L0023) VH: EVMLVESGGGLVKPGGSLRLSCAASGFTFSNYAMSWVRQAPGKGLEWVATISSGGSHTYYLDSVKGRFTISRDNSKDTLYLQMNSLRAEDTALYYCARLFTGHAMDYWGQGTLVTVSS VL: QIVLTQSPATLSLSPGERATLSCTASSSVSSSYLHWYQQKPGKAPKLWIYSTSNLASGVPSRFSGSGSGTDYTLTISSLQPEDFATYYCHQYYRHPPITFGQGTKLEIKR |
| 4290 | 0.0178 | 4140 | 6.3 | 0.3 | 215 | 0.00133 | 6170 | 684 | 0.016 | 23300 | C1_IPN92H0026-SG4GK/IPN93L0031-SK1 (antibody, human IgG4 S228P, kappa, name in Kabat numbering, V domains shown, also called IPN92H0026/IPN93L0031) VH: EVMLVESGGGLVKPGGSLRLSCAASGFTFSNYAMSWVRQAPGKGLEWVATISSGGSHTYYLDSVKHRFTISRDNSKDTLYLQMNSLRAEDTALYYCARLFTGYAMDYWGQGTLVTVSS VL: QIVLTQSPATLSLSPGERATLSCTASSSVSSSYLHWYQQKPGKAPKLWIYSTSNLASGVPSRFSGSGSGTDYTLTISSLQPEDFATYYCHQYHRHHPITFGQGTKLEIKR |
| 5.01 | 0.00293 | 585000 | 2.6 | 4 | 7.59 | – | – | 1.92 | 0.000672 | 350000 | C1_IPN92H0033-SG4GK/IPN93L0021-SK1 (antibody, human IgG4 S228P, kappa, name in Kabat numbering, V domains shown, also called IPN92H0033/IPN93L0021) VH: EVMLVESGGGLVKPGGSLRLSCAASGFTFSNYAMSWVRQAPGKGLEWVATISSGGSHTYYLDSVKGRFTISRDNSKDTLYLQMNSLRAEDTALYYCARLFTGHAMDYWGQGTLVTVSS VL: QIVLTQSPATLSLSPGERATLSCTASSSVSSSYLHWYQQKPGKAPKLWIYSTSNLASGVPSRFSGSGSGTDYTLTISSLQPEDFATYYCHQYHRLPPITFGQGTKLEIKR |
| 26.2 | 0.0592 | 2.26e+06 | 1.1 | 10.9 | 270 | 0.0012 | 4460 | 24.8 | 0.0103 | 414000 | C1_IPN92H0026-SG4GK/IPN93L0030-SK1 (antibody, human IgG4 S228P, kappa, name in Kabat numbering, V domains shown, also called IPN92H0026/IPN93L0030) VH: EVMLVESGGGLVKPGGSLRLSCAASGFTFSNYAMSWVRQAPGKGLEWVATISSGGSHTYYLDSVKHRFTISRDNSKDTLYLQMNSLRAEDTALYYCARLFTGYAMDYWGQGTLVTVSS VL: QIVLTQSPATLSLSPGERATLSCTASSSVSSSYLHWYQQKPGKAPKLWIYSTSNLASGVPSRFSGSGSGTDYTLTISSLQPEDFATYYCHQYYRHHPITFGQGTKLEIKR |

Continued, binder first:

| Binder | Kd (human C1s [1]) [nM] | koff (human C1s [1]) [s⁻¹] | kon (human C1s [1]) [M⁻¹ s⁻¹] | KD 5(+)/7(+) (human C1s [2]) | KD 5(-)/7(+) (human C1s [3]) | Kd (human C1s [4]) [nM] | koff (human C1s [4]) [s⁻¹] | kon (human C1s [4]) [M⁻¹ s⁻¹] | Kd (human C1s [5]) [nM] | koff (human C1s [5]) [s⁻¹] | kon (human C1s [5]) [M⁻¹ s⁻¹] |
| --- | --- | --- | --- | --- | --- | --- | --- | --- | --- | --- | --- |
| C1_IPN92H0026-SG4GK/IPN93L0024-SK1 (antibody, human IgG4 S228P, kappa, name in Kabat numbering, V domains shown, also called IPN92H0026/IPN93L0024) VH: EVMLVESGGGLVKPGGSLRLSCAASGFTFSNYAMSWVRQAPGKGLEWVATISSGGSHTYYLDSVKHRFTISRDNSKDTLYLQMNSLRAEDTALYYCARLFTGYAMDYWGQGTLVTVSS VL: QIVLTQSPATLSLSPGERATLSCTASSSVSSSYLHWYQQKPGKAPKLWIYSTSNLASGVPSRFSGSGSGTDYTLTISSLQPEDFATYYCHQYYRLHPITFGQGTKLEIKR | 3.16 | 0.00143 | 451000 | 2.8 | 13.2 | 15.1 | 0.112 | 7.43e+06 | 1.14 | 0.00047 | 412000 |
| C1_IPN92H0033-SG4GK/IPN93L0028-SK1 (antibody, human IgG4 S228P, kappa, name in Kabat numbering, V domains shown, also called IPN92H0033/IPN93L0028) VH: EVMLVESGGGLVKPGGSLRLSCAASGFTFSNYAMSWVRQAPGKGLEWVATISSGGSHTYYLDSVKGRFTISRDNSKDTLYLQMNSLRAEDTALYYCARLFTGHAMDYWGQGTLVTVSS VL: QIVLTQSPATLSLSPGERATLSCTASSSVSSSYLHWYQQKPGKAPKLWIYSTSNLASGVPSRFSGSGSGTDYTLTISSLQPEDFATYYCHQYHRHPPITFGQGTKLEIKR | 20.1 | 0.0144 | 717000 | 3.1 | 1.3 | 8.5 | 0.0056 | 658000 | 6.5 | 0.00218 | 335000 |
| C1_IPN92H0026-SG4GK/IPN93L0029-SK1 (antibody, human IgG4 S228P, kappa, name in Kabat numbering, V domains shown, also called IPN92H0026/IPN93L0029) VH: EVMLVESGGGLVKPGGSLRLSCAASGFTFSNYAMSWVRQAPGKGLEWVATISSGGSHTYYLDSVKHRFTISRDNSKDTLYLQMNSLRAEDTALYYCARLFTGYAMDYWGQGTLVTVSS VL: QIVLTQSPATLSLSPGERATLSCTASSSVSSSYLHWYQQKPGKAPKLWIYSTSNLASGVPSRFSGSGSGTDYTLTISSLQPEDFATYYCHQYHRLHPITFGQGTKLEIKR | 10.2 | 0.00613 | 602000 | 1.1 | 0.6 | 5.07 | 0.00412 | 812000 | 9.03 | 0.00457 | 507000 |
| C1_IPN92H0026-SG4GK/IPN93L0028-SK1 (antibody, human IgG4 S228P, kappa, name in Kabat numbering, V domains shown, also called IPN92H0026/IPN93L0028) VH: EVMLVESGGGLVKPGGSLRLSCAASGFTFSNYAMSWVRQAPGKGLEWVATISSGGSHTYYLDSVKHRFTISRDNSKDTLYLQMNSLRAEDTALYYCARLFTGYAMDYWGQGTLVTVSS VL: QIVLTQSPATLSLSPGERATLSCTASSSVSSSYLHWYQQKPGKAPKLWIYSTSNLASGVPSRFSGSGSGTDYTLTISSLQPEDFATYYCHQYHRHPPITFGQGTKLEIKR | 10.6 | 0.0059 | 557000 | 2.2 | 5.8 | 27.6 | 0.176 | 6.4e+06 | 4.76 | 0.00255 | 535000 |
